In the DeepSol protein solubility set:

Experiment: soluble on expression in E. coli; label from the status in PepcDB or PDB records
With “MSLKQIIDNVEVYILTGPKEKRPHWVSHFIVPTANELLVKIKTKQGLEGFGIATNYSDINPVIEVFKTDFLDNFIGMDATCPEVIYEKIFNLTSQKLSFEKKWGKEPLIRISAAIDIACWDLIGKASGFPLYKLFGGYRDKVPCYVTCAYYRDGKDNKELKDEIEMLVGQGHQGFKGKVGGLSLREDLERMNIIRDVIGDEKSLMIDVNRAWDLKTASEAVNLLKPINPFWLEEPVRWADDRRELKLLSQKTEIPISGGESELTIYGCRSMLEEQAIQILQFDCTMFGGFTAGKKLSALCEVNHVDIAPHHDCFIHAHIVAGSPSGLIVESFTDPERDPLQAELFTNPPKIENGWLYLNEEPGLGLNLSNDALAKFGNKILEGHHHHHH” the “soluble on expression in E. coli” value was “soluble”.
In the case of “MSLKQKSSGKSVIITGVTQGLGRAMVDRFHELGWNIYGCGRSKDKIEELKKYYGNTHVFQIIDVSDSQQVSDWANYILHRNRAPDLLINNASIVNKNAPLWKVTAEEFENVMNVNVNGVVNVIRAFVPAMVARKAGMIINMSSSWGREGEAELAPYCASKFAIEGITKSLALELPYSMAVVALDPGGSISTPMLYSCAPQYVNESPTPEMWSQHAIPYILKITIDKNGASLTCPECTEGHHHHHH”, the “soluble on expression in E. coli” value is reported as “soluble”.
In the case of “MSLKQLDMTPQPDLSQKTGTGPVLTRLPVWRPALPPCNHACPAGENIQAWLSLAEAGRFEAAWQTLIEENPLPAIHGRVCYHPCESACNRAQVDDAVSIHAIERFLGDEALARGWQPAPPAPASGKKVLVIGAGPSGLSCAWHLNRLGHQVEIREAGPLAGGMLRFGIPAYRLPRDVLDREVARIVAAGVTLTLNHKVEDVLRERDEGGFDAVFMAIGAHLAKRVDIPAREAGKILDAVSFLEQASLAEEQGLPPPKLGRRVAIYGGGNTAMDAARTARRLGVEEAMIIYRRDREHMPAHAFEADEAEEEGIKINWLRSIRQLDNTNIEVEVMALDAEGKPVPTGKFETLEADSLILALGQEVDLSVLESIPGVRVNKEGVVQVGENLMTDVPGLFAGGDMVPSERTVTIATGHGKKAARHMDAWLRGRHYQKMVSYPLVGPEQLQLWFQTHAPASSQPVKPAWARDDFGEIIGGLDETAARYEAARCYSCGNCFECDGCYGSCPEQAIEKLGPGKGYQVDATRCTGCGACHDQCPCHAIELRQPEESEGHHHHHH”, the “soluble on expression in E. coli” value is reported as “soluble”.
For “MSLKQYSVKELTKLYKFLVIKANETRKLTLQDKNGIVKSNTDYNGVINRAQLGYDNILDILPSVSGSYSKPKYIISSNLMCYTGITGIYFPFTGEANVNIAIPDLYIPCTVEHEMAHQRGFASEDEANFIAYLTSIKHPNIDFNYSGYILALNYTASALSKVDYNAYVDISAGISDSVRRDLKNESEFWQKYEGKINEISNEFNNSYLKANGVTEGTQSYGKMVDLLLTYYELYPYNEGHHHHHH”, the “soluble on expression in E. coli” value was “soluble”.
In the case of “MSLKRQLGKDVVQAARERIHILFDEFEHIYVSFSGGKDSGVLLHLVIEEARKRNRLPVDVLIVDLEAQYQHTIHFVERMVNKKEVNAFWVCLPLSLRNSVSQFQPKWICWDPDKKEDWIRALPLHASVINEEEYFSFYSFGMEFETFVSAFGEWYSEKKQCPCACLVAIRADESLNRYKTIKNQRKKRLKQYGWTTKASDVFYKAYLIYDWHVTDIWIANGRFNWDYNHVYDLMHKAGLSLAQQRLCQPFGDDQRKGLWLYQILEPQTWQKLVVRVEGCNFGARYSKKQGHILGYYKFDLPEGYTYRSYSKYLLNSMPPHLADHYRKRLFKFLNWWRKNGKEQGILSIPDFADKKLEAKKKVPSWRRICKVLIKNDYWCRGLSFGQSKKLTEHYIDLYEGYFRKEGHHHHHH”, the “soluble on expression in E. coli” value is reported as “soluble”.
With “MSLKSADSATQQYLKEKHEEYLSLQHGLQRREETLLATVNQIVVNQHAFLLHQAALAPLLLRDVAKALQVNESTVSRTIKGKHLQTDLGIFAFKDFFSKRTQAVSSSAYHSVDQLKFTMMQLIQSENKMCPASDNLLVKWLYEKGFKVARRTVTKYRNELGLPAASARKSREGHHHHHH” the “soluble on expression in E. coli” value was “soluble”.
With “MSLKSESKGGSNALVVSTFGLSEDIVKKDIIAPFEKENEAKVTLEVGNSADRFTKLKNNPNAGIDVIELAQANAAQGGKDGLFEKITEKEVPNLSQLTPGAKEVFESGAGVPIAVNSIGIVYNKEKLGKEIKNWDDLWSADLKGKISVPDVATTAGPLMLYVASEHAGQDITKDNGKAAFEAMKELKPNVVKTYSKSSDLANMFQSGEIEAAVVADFAVDIIQGAAENVTYIVPESGTYANYNTVNIPKKAQNKETAFKFVNARISEESQKAKAISLNEGPTNQQVTLSEKEAKNKTYGAIAERAKTVDFNFINSQLADWIDQWNRTMNQEGHHHHHH” the “soluble on expression in E. coli” value was “soluble”.
